Results as given in PMC3429473, “The Weak Complex between RhoGAP Protein ARHGAP22 and Signal Regulatory Protein 14-3-3 Has 1∶2 Stoichiometry and a Single Peptide Binding Mode” (PLoS ONE, 2012).
Read-outs that look alike come from different tables or passages of the source.

Tests used:
[1] = molecular target: AG22 (1–422) S16D/S411D phosphomimic double mutant (human); assay: cross-linking + SEC; 1:2 mixture cross-linked with BS3 for 30 min in 50 mM Hepes pH 8.6, purified by gel filtration, then analytical Superdex S200 10/300GL in 25 mM HEPES pH 7.5, 150 mM NaCl, 2 mM β-ME
[2] = molecular target: AG22 (1-422) S16D/S411D (human); assay: small-angle X-ray scattering (SAXS) titration; AG22 (1-422) S16D/S411D at 26.5 µM (1.25 mg/mL) pre-mixed with 14-3-3 at molar 14-3-3_(2):AG22 ratios of 0.5:1.0, 1.0:1.0, 1.5:1.0 and 2.0:1.0, about 1 hour on ice, measured at room temperature (295 K); scattering fitted as a linear combination of the profiles of 14-3-3_(2), AG22 and the cross-linked complex; Kd = (W_AG22 x W_14-3-3)/W_Complex for each titration point
[3] = molecular target: wild type AG22 (1–422) (human); assay: cross-linking; AG22 proteins (10 µM) and 14-3-3 (30 µM), alone or mixed, in 50 mM HEPES pH 8.6 with 3 mM BS3 at room temperature for 5 to 30 min; SDS-PAGE, Coomassie Blue
[4] = molecular target: AG22 (1–422) S16D/S411D phosphomimic double mutant (human); assay: as above
[5] = molecular target: AG22 (1-422) S16D/S411D (human); assay: small-angle X-ray scattering (SAXS) titration; AG22 (1-422) S16D/S411D at 26.5 µM (1.25 mg/mL) pre-mixed with 14-3-3 at molar 14-3-3_(2):AG22 ratios of 0.5:1.0, 1.0:1.0, 1.5:1.0 and 2.0:1.0, about 1 hour on ice, measured at room temperature (295 K); scattering fitted as a linear combination of the profiles of 14-3-3_(2), AG22 and the cross-linked complex; Kd = (W_AG22 x W_14-3-3)/W_Complex for each titration point; remark: listed apart in the source
[6] = molecular target: AG22 (1–422) S16D/S411D phosphomimic double mutant (human); assay: SAXS titration; AG22 (1–422) S16D/S411D at 26.5 µM (1.25 mg/mL) mixed with 14-3-3 dimer at molar ratios 0.5, 1.0, 1.5 and 2.0; about 1 h on ice; data fitted as linear combinations of the profiles of the two proteins and of the cross-linked complex; Kd counted on the 14-3-3 dimer
[7] = molecular target: AG22 (1-422) S16D/S411D (human); assay: small-angle X-ray scattering (SAXS) titration; AG22 (1-422) S16D/S411D at 26.5 µM (1.25 mg/mL) pre-mixed with 14-3-3 at molar 14-3-3_(2):AG22 ratios of 0.5:1.0, 1.0:1.0, 1.5:1.0 and 2.0:1.0, about 1 hour on ice, measured at room temperature (295 K); scattering fitted as a linear combination of the profiles of 14-3-3_(2), AG22 and the cross-linked complex; Kd = (W_AG22 x W_14-3-3)/W_Complex for each titration point; remark: listed apart in the source
[8] = molecular target: T1, AG22 (1–145) S16D (human); assay: cross-linking; AG22 proteins (10 µM) and 14-3-3 (30 µM), alone or mixed, in 50 mM HEPES pH 8.6 with 3 mM BS3 at room temperature for 5 to 30 min; SDS-PAGE, Coomassie Blue; settings: both partners purified
T1 chain: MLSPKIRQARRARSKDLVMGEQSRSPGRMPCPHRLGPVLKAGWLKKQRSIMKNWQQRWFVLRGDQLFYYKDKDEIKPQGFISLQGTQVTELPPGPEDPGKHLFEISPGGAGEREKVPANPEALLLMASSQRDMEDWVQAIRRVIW

[9] = molecular target: the molecule itself; assay: as above

B1: human 14-3-3 β (natural protein)
chain: MTMDKSELVQKAKLAEQAERYDDMAAAMKAVTEQGHELSNEERNLLSVAYKNVVGARRSSWRVISSIEQKTERNEKKQQMGKEYREKIEAELQDICNDVLELLDKYLIPNATQPESKVFYLKMKGDYFRYLSEVASGDNKQTTVSNSQQAYQEAFEISKKEMQPTHPIRLGLALNFSVFYYEILNSPEKACSLAKTAFDEAIAELDTLNEESYKDSTLIMQLLRDNLTLWTSENQGDEG
notes: human 14-3-3 β isoform, codon-optimized synthetic gene (GeneArt) in pET20b; calculated monomer mass 29.3 kDa; the printed monomer mass of 29.3 kDa would fit the whole protein with the tag; Dimer by cross-linking and SAXS; also called 14-3-3_(2); 14-3-3 β isoform; not shown: His6, C-terminal, kept
How did the stoichiometry N (14-3-3 chains per AG22 molecule) [1] turn out when B1 was run?
Its stoichiometry N (14-3-3 chains per AG22 molecule) is 2.

What about the Kd [2] of the same binder?
Its Kd is 27.4 µM.

And the Kd ([2]; record 2)?
The Kd was 30.6 µM.

What about the stoichiometry N (14-3-3 chains per AG22 molecule) [3] of the same binder?
Its stoichiometry N (14-3-3 chains per AG22 molecule) is 2.

And the stoichiometry N (14-3-3 chains per AG22 molecule) [4]?
Its stoichiometry N (14-3-3 chains per AG22 molecule) is 2.

What about the Kd [5] of the same binder?
Its Kd is 34.2 µM.

And the Kd [6]?
The Kd was 28 µM.

And the Kd [7]?
The Kd was 20.9 µM.

And the “stoichiometry N” value [8]?
The value was 2 14-3-3 chains per AG22 molecule.

What about the “stoichiometry N” value [9] of the same binder?
Its value is 2.
